Source: patent US20260167959A1, “APTAZYME-BASED REGULATABLE GENE EXPRESSION SYSTEMS” (REJUVENATE BIO INC, priority 2022, published 2026)

system: Renilla luciferase RNA; test: Barcoded aptazyme variant library screen: un-cleaved Renilla luciferase RNA by barcode read counts, HEK293-T cells; assay type: cell-based; conditions: un-cleaved Renilla luciferase RNA by barcode read counts; with 1 mM theophylline (ON) over without theophylline (OFF); HEK293-T cells; triplicate
In short: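 Barcode sequencing of cDNA versus DNA, normalized per aptazyme, gave the un-cleaved Renilla luciferase RNA fraction and fold-change with versus without theophylline (triplicates). Library: T3H48 ribozyme with one of seven theophylline aptamer variants inserted at each position, placed in the Renilla 3′ UTR of a dual-luciferase vector.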

Row | Molecule | Fold change in RNA expression between the ON state and the OFF state
1 | RA368 (nucleic acid, expressed or natural sequence) DNA: GCGCGTCCTGGATTCGCGGAAACGCGTACATCCAGCTGACGAGTCCCGAGAATACCAGCATCGTCTTGATGCCCTTGGAAGTCTCGCAAATAGGACGAAACGCGC | 0.8
2 | RA372 (nucleic acid, expressed or natural sequence) DNA: GCGCGTCCTGGATTCGCGGAAACGCGTACATCCAGCTGACGAGTCCCAAACGAGAATACCAGCATCGTCTTGATGCCCTTGGAAGTCTCGTAGGACGAAACGCGC | 0.8
3 | RA379 (nucleic acid, expressed or natural sequence) DNA: GCGCGTCCTGGATTCGCGGAAACGCGGAATACCAGCATCGTCTTGATGCCCTTGGAAGTCCGTACATCCAGCTGACGAGTCCCAAATAGGACGAAACGCGC | 0.8
4 | RA377 (nucleic acid, expressed or natural sequence) DNA: GCGCGTCCTGGATTCGCGGAAACGCGTACATCCAGCTGACGAGTCCCAAATAGGACGGAGAATACCAGCATCGTCTTGATGCCCTTGGAAGTCTCAAACGCGC | 0.8
5 | RA374 (nucleic acid, expressed or natural sequence) DNA: GCGCGTCCTGGATTCGCGGAAACGCGTACATCCAGCTGCCGGAATACCAGCATCGTCTTGATGCCCTTGGAAGTCCGGACGAGTCCCAAATAGGACGAAACGCGC | 0.8
6 | RA378 (nucleic acid, expressed or natural sequence) DNA: GCGCGTCCTGGATTCGCGGAAACGCGTACATCCCGGAATACCAGCATCGTCTTGATGCCCTTGGAAGTCCGGCAGCTGACGAGTCCCAAATAGGACGAAACGCGC | 0.8
7 | RA371 (nucleic acid, expressed or natural sequence) DNA: GCGCGTCCTGGATTCGCGGAAACGCGTACATCCAGCTGACGAGTCCCAAAAGAATACCAGCATCGTCTTGATGCCCTTGGAAGTCTTAGGACGAAACGCGC | 0.8
8 | RA380 (nucleic acid, expressed or natural sequence) DNA: GCGCGTCCTGGATTCGCGGAAACGCCGAGAATACCAGCATCGTCTTGATGCCCTTGGAAGTCTCGGTACATCCAGCTGACGAGTCCCAAATAGGACGAAACGCGC | 0.8
9 | RA376 (nucleic acid, expressed or natural sequence) DNA: GCGCGTCCTGGATTCGCGGAAACGCGTACATCCAGCTGAAGAATACCAGCATCGTCTTGATGCCCTTGGAAGTCTCGAGTCCCAAATAGGACGAAACGCGC | 0.8
10 | RA375 (nucleic acid, expressed or natural sequence) DNA: GCGCGTCCTGGATTCGCGGAAACGCGTACATCCAGCTCCGGAATACCAGCATCGTCTTGATGCCCTTGGAAGTCCGGGACGAGTCCCAAATAGGACGAAACGCGC | 0.8
11 | RA369 (nucleic acid, expressed or natural sequence) DNA: GCGCGTCCTGGATTCGGAATACCAGCATCGTCTTGATGCCCTTGGAAGTCCGCGCGGAAACGCGTACATCCAGCTGACGAGTCCCAAATAGGACGAAACGCGC | 0.8
12 | RA385 (nucleic acid, expressed or natural sequence) DNA: GCGCGTCCTGGATCCGGAATACCAGCATCGTCTTGATGCCCTTGGAAGTCCGGTCGCGGAAACGCGTACATCCAGCTGACGAGTCCCAAATAGGACGAAACGCGC | 0.8
13 | RA384 (nucleic acid, expressed or natural sequence) DNA: GCGCGTCCTGGATTCGCGGAAACGCGTACATCCAGCTGACGAGTCGAGAATACCAGCATCGTCTTGATGCCCTTGGAAGTCTCCCAAATAGGACGAAACGCGC | 0.8
14 | RA383 (nucleic acid, expressed or natural sequence) DNA: CGGAATACCAGCATCGTCTTGATGCCCTTGGAAGTCCGGCGCGTCCTGGATTCGCGGAAACGCGTACATCCAGCTGACGAGTCCCAAATAGGACGAAACGCGC | 0.8
15 | RA370 (nucleic acid, expressed or natural sequence) DNA: GCGCGTCCTGGATTCGCGGAAACGCGTACATCCAGCTGACGAGTCCCAAATAGGACGAAACGGGAATACCAGCATCGTCTTGATGCCCTTGGAAGTCCCGC | 0.8
16 | RA373 (nucleic acid, expressed or natural sequence) DNA: GCGCGTCCTGGATTCGCGGAAACGCGTACATCCAGCTGACGAGTCCCAAGTGATACCAGCATCGTCTTGATGCCCTTGGCAGCACTAATAGGACGAAACGCGC | 0.8
17 | RA382 (nucleic acid, expressed or natural sequence) DNA: GCGCGTCCTGGATTCGCGGAAACGCGTACATCCAGCTGACGCCGGAATACCAGCATCGTCTTGATGCCCTTGGAAGTCCGGAGTCCCAAATAGGACGAAACGCGC | 0.8
18 | RA381 (nucleic acid, expressed or natural sequence) DNA: GCGCGTCCTGGATTCGCGGAAACGCGTACATCCAGCTGACGAGTCCCAAATAGGACGAAACGCGCCCGGAATACCAGCATCGTCTTGATGCCCTTGGAAGTCCGG | 0.8

same assay, conditions: un-cleaved Renilla luciferase RNA, HEK293-T cells cultured with 1 mM theophylline (ON) over without theophylline (OFF); barcode read counts, triplicate

Row | Molecule | Fold change in RNA expression between the ON state and the OFF state
19 | RA036 (nucleic acid, expressed or natural sequence) DNA: GCGCGTCCTGGATTCGCGGAAACGCGTACATCCAGCTGACGAGTCCCAAATAGGCGAGAATACCAGCATCGTCTTGATGCCCTTGGAAGTCTCGACGAAACGCGC | 2.2 fold
20 | RA003 (nucleic acid, expressed or natural sequence) DNA: GCGCGTCCTGCGGAATACCAGCATCGTCTTGATGCCCTTGGAAGTCCGGATTCGCGGAAACGCGTACATCCAGCTGACGAGTCCCAAATAGGACGAAACGCGC | 5.5 fold
21 | RA037 (nucleic acid, expressed or natural sequence) DNA: GCGCGTCCTGGATTCGCCGGAATACCAGCATCGTCTTGATGCCCTTGGAAGTCCGGGAAACGCGTACATCCAGCTGACGAGTCCCAAATAGGACGAAACGCGC | 2.2 fold
